The series in a line: soluble on expression in E. coli; label from the status in PepcDB or PDB records.
For “MSLGSMGFIESEVAVVYGRIVEGFRAPYKEDLYFKTVIVPGFSDGHMHTQVVDAGLEPSRVWSNSYEWLETRRLRVDEAAVRSDLDLSSRLAAAAFSRSLLEGVTLVAATGRLSANVRGWLSLTSRPRAIFLPTVMDRAGWPSIREVEVEIERLEGLLRDGLAKIGVFVHSLGTAKPESVRRALQTAARRRSIMGMHLSEGLPEAGRLVDVLGRGPYPARIVAVHCMEVEDLPTGVRCVSCPASNQILYRRTRPTLEGVDGFGSDWPLLIGTIARHLPLINKLYPGRLQEILYKATIGGYRAYLALHDGDFVAYDASLEDVLAGRALPVWVSVAGKPAVVEGRLSGSGYGYGEVLSIIRRLIKEALEKHGDGSLPYIPDVESMYEASLALEGGPRSEGHHHHHH”, the “soluble on expression in E. coli” value is “not soluble”.

For the sequence “MEGWQRAFVLHSRPWSETSLMLDVFTEESGRVRLVAKGARSKRSNLKGALQPFTPLLLRYSGRGEVKTLRSAEAVSLALPLSGITLYSGLYINELLSRVLEYETRFSELFFDYLNCIQALAGTTGSPEPALRRFELALLGHLGYGVNFTHCAGSGERVDDTMTYRYREEKGFFASVVIDNNTFTGRHLKALEAREFPDVDTLRAAKRFTRMALKPYLGGKPLKSRELFRQFMPKRTVKTKKD”, the “soluble on expression in E. coli” value was “not soluble”.

On to “MGSDKIHHHHHHMLMELTTTSHALKEWAVAVNALESGKTIMLLRKGGIHERNGNFQVAHKQILLYPTYEHQQAFMLKPEYANRVYPVTSGWHPETVRIGSWAEITDILPISDEFLVNALLPFHIWNEHFISDRLKWKPRQPLYILLLRTYKLTQDQEIPYHPKYGGCKSWIDLDQSINLQETTPALSDFAYTQLVQTIRGIVGDKMARKIDMLNYNSTFS”, for which the “soluble on expression in E. coli” value was “not soluble”.

As to “DAKEKRLREIQFEKEMIERDMREYRGFSRAVRAVFEEKERFPGLVDVVSNLIEVDEKYSLAVSVLLGGTAQNIVVRNVDTAKAIVEFLKQNEAGRVTILPLDLIDGSFNRISGLENERGFVGYAVDLVKFPSDLEVLGGFLFGNSVVVETLDDAIRMKKKYRLNTRIATLDGELISGRGAITGGREERSSNVFERRIKLKHLEQEMEETERQI”, the “soluble on expression in E. coli” value was “soluble”.

“MGVLQATVLWAGPIPRVGNPPNWTSPSSSGLLFFYFFFTSTSDFTMEAPPAPKKARRSEVSRMQDESVLCDDDEEDSPFTLYFVDLPNEPTVKEIRNLEELFKTAKAVGIMPEWIDSDALEDLQKSEDFFVLPCFRGKLFRKLQARKLKVYGPPIVLESIEDGKQLPQWNHPVYSSVFQDVKISFTGLNLTKKQELYEKIGWMCGVVGDALYHETTHLVTEKAEQTEKYKAAVNNSIKLMRIGWIDDLWETSQTTMGRFSALSRDSVNSYALRVFEGLEMAITSIDGADRTNFIQLIEDHGGKVPGTMSKTRFFFSVFHYKICSFLGALLSIQMMLPEKAFYRKYHPKYLTADHIRSSTPKRDANVTESVPDISSIAGHGGRLGTSSFNSSIPQMDQSYQHQSGSSFISFASTSKIPSSTFTNNDSTLGRSGSGVRDGISTPIARVQTTPLIRYPTTQTASVQNIADVISDPIDELRKNIDDGLGDLFENCMFYICGVDESRMEKWRRFLNETGATRVAKFTSATNVVVVSPNQQERITIRKHLHQEDIAIVTVGWVVECVKQRKMISVEGYQWTENTADESQSSQSQLQPVRPQPLPRTSSKSTIPYGKTSGPSSTSTQVGIFSYHTYCVHCSVDQEVSDDLKEKIPLNGGKLMDDPDYAEFVIFGHSGPMHELISFDAVVTDFYIYASIGNNRFLNRSCYPLFVPLPRPPILIFNQRGFQLKCKDPFLRDRVRDIIEDNGGRIVEQLEPKDFIIMIDAEDNPPRYHSRTLDFSWIIASVSRCRLQPIDNFLYKNNTRPLSGFQRDDDLWEKCSREKNNSTQEMEVEVEDRHRVQDLPVETGNGNIGDMTTPYVNPYFPDLRKPYTMNLQLDGVSEYINNMESPARETQETLTTSRVGSILRKAVVNTGRNEDFEDEPSTCHLIRPRVPENRKTVSSTPVLVRDVNRSMRYMPMDESFADQNQEHEDLNRRYAMNPRFLLSVSNMDPQRAADLQETIMKLGGTIEREFNKDVTHLIASNMQRAPKVLCSIAAGKWCLTPDYVTKSAEVGRWLDEKSFEWTREKLLACSKKNESLKERDSRKVSENLAAVCGLWRQRVAEMPVTFSVSMENRQNGAFSDWRCVIHLDDKRAGVFSSILEAGGAIVHSISEYVEVSTLKPNIVLASKEFPWNPQSAVLLKRDNIPIYVFDILYDFLIDRDNLNRTKFWHNVYMKA”: the “soluble on expression in E. coli” value is “not soluble”.

For the origin of these results see the DeepSol protein solubility set.
